Earlier results in paper PMC4475429.

Target: PKA RIα (Homo sapiens) (UniProt P10644)
Sequence (P10644 whole entry): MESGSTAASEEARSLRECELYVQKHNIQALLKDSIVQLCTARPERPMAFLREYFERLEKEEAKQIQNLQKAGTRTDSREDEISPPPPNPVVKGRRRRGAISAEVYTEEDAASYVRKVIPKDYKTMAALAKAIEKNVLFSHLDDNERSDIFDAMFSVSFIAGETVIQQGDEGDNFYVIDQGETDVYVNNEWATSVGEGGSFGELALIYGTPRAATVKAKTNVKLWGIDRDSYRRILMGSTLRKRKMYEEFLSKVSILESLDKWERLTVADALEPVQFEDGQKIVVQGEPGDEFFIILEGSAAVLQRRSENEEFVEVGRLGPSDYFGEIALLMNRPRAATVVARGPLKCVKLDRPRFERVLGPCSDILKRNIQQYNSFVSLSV

Chain of Ht31 (Q12802 whole entry): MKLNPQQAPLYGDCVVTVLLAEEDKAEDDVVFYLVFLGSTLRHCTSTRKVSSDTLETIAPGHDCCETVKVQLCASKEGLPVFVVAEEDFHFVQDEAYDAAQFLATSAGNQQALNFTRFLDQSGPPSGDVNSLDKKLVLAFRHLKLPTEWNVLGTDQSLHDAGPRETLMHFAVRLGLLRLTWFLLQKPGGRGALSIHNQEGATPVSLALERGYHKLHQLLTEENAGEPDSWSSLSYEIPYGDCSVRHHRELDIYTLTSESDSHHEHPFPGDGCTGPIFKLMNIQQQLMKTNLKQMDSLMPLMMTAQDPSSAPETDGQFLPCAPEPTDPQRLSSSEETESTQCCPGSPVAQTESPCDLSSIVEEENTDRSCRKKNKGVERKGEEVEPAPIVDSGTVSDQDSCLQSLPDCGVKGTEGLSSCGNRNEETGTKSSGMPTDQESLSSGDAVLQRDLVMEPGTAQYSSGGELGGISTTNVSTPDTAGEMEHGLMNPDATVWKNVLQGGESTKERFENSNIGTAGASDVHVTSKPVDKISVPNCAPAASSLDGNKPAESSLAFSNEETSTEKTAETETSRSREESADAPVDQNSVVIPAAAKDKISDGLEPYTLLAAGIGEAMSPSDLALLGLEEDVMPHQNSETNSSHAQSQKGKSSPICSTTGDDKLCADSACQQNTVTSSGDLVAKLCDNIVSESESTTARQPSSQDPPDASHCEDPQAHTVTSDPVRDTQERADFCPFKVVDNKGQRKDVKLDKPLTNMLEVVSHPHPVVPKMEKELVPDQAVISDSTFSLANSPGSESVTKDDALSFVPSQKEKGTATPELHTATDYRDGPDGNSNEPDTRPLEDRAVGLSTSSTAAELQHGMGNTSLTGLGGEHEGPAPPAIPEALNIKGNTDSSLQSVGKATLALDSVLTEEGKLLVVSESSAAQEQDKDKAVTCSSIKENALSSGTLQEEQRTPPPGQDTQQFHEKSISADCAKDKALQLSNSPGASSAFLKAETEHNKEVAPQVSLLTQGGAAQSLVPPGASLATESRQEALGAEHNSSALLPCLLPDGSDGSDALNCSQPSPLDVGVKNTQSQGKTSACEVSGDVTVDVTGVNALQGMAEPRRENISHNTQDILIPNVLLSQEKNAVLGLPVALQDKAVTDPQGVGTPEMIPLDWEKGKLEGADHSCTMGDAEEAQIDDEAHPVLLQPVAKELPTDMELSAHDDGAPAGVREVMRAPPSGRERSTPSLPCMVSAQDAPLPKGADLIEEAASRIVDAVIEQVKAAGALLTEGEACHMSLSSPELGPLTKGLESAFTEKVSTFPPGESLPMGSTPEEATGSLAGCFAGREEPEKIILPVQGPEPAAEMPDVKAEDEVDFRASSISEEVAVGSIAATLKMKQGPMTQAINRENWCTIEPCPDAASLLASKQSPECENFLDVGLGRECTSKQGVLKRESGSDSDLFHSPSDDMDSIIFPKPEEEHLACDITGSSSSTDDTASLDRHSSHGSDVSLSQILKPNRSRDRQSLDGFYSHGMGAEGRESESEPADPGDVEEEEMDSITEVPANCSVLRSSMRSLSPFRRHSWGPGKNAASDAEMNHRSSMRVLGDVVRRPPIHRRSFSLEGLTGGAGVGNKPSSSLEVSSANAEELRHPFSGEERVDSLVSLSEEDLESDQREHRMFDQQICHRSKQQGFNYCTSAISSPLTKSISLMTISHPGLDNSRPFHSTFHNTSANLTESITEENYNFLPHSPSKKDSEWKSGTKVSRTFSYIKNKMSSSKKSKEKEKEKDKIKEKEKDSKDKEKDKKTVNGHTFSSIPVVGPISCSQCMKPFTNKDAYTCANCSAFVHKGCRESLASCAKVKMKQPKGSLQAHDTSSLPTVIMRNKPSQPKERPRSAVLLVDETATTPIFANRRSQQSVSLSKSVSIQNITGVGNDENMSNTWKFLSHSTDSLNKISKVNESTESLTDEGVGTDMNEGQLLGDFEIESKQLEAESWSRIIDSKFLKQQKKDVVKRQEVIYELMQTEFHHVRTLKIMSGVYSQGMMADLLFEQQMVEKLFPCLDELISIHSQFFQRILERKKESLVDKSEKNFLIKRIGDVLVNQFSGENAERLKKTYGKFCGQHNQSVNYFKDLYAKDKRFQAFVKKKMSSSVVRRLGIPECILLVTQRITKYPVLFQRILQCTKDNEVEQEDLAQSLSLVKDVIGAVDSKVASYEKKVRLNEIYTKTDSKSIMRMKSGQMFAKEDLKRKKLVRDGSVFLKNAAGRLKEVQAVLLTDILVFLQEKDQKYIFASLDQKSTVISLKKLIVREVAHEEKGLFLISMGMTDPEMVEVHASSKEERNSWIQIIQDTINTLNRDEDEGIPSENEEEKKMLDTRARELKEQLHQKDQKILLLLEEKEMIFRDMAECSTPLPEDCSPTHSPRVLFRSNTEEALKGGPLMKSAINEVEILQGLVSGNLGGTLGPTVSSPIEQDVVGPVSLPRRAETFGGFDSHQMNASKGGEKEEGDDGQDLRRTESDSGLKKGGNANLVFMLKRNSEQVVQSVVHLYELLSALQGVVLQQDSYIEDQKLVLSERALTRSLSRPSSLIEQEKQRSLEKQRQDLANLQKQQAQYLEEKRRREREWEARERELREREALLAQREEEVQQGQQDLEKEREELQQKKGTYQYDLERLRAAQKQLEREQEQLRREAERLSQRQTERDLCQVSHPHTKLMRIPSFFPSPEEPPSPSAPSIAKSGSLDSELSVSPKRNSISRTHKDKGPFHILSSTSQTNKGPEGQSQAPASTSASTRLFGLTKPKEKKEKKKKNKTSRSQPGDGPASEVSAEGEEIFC

Ht31 (from UniProt Q12802)
Kd: 2.1 µM
